In the supplement of paper PMC10065799, “High-throughput profiling of sequence recognition by tyrosine kinases and SH2 domains using bacterial peptide display” (eLife, 2023):

What was measured:
c-Abl (mouse) = test: phosphorylation enrichment, bacterial display (enrichment ratio); higher = better substrate or ligand; peptides without Tyr show the background
Fes = Fes (UniProt P07332); test: as above
Fer (mouse) = test: as above
EPHB1 = EPHB1 (UniProt P54762); test: as above
MERTK = MERTK (UniProt Q12866); test: as above
Hck = Hck (UniProt P08631); test: as above
AncSZ = test: as above
Fyn = Fyn (UniProt P06241); test: as above
FGFR1 = FGFR1 (UniProt P11362); test: as above
EPHB2 = EPHB2 (UniProt P29323); test: as above
FGFR3 = FGFR3 (UniProt P22607); test: as above
c-Src = test: as above
Jak2 = Jak2 (UniProt O60674); test: as above
SHP2-C SH2 = test: SH2 binding enrichment of the phosphorylated peptide, bacterial display (enrichment ratio); higher = better substrate or ligand; peptides without Tyr show the background
Grb2 SH2 = Grb2 SH2 (UniProt P62993); test: as above
c-Src SH2 = test: as above
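Throughout, for SH2 binding enrichment of the phosphorylated peptide, bacterial display: peptide library displayed on the E. coli surface as eCPX fusions, selected cells deep-sequenced, score is each peptide's frequency after selection divided by its frequency in the input.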
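Throughout, for phosphorylation enrichment, bacterial display: 11-residue human phosphosite peptides and single-mutation variants displayed on the E. coli surface, counted by deep sequencing, each peptide's frequency after selection divided by its frequency in the unselected input library; frequency after pTyr selection over input frequency; kinase dosed for 20-30% of maximal phosphorylation in three min.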

Sequence of Grb2 SH2 (P62993 whole entry, looked up): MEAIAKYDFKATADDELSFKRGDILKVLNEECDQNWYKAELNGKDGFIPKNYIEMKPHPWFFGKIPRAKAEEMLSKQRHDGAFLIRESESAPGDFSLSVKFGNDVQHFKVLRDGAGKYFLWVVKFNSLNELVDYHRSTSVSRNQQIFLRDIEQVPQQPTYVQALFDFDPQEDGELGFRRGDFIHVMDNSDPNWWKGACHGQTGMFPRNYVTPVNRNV
Sequence of Hck (P08631 whole entry, looked up): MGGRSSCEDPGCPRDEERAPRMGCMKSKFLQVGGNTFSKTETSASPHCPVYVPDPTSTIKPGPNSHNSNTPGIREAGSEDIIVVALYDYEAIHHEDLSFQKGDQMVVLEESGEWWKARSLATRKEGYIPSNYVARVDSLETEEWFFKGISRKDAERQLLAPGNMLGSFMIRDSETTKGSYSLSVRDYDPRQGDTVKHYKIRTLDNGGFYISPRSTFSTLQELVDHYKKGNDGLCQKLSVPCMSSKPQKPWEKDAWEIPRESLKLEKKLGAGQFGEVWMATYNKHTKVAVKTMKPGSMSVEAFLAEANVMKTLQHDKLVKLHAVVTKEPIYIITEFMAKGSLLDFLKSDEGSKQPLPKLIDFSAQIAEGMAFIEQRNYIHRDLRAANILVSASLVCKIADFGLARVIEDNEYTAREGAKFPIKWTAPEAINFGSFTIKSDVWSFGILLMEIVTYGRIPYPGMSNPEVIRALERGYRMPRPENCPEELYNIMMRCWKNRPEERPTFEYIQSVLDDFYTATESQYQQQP
Sequence of EPHB1 (P54762 whole entry, looked up): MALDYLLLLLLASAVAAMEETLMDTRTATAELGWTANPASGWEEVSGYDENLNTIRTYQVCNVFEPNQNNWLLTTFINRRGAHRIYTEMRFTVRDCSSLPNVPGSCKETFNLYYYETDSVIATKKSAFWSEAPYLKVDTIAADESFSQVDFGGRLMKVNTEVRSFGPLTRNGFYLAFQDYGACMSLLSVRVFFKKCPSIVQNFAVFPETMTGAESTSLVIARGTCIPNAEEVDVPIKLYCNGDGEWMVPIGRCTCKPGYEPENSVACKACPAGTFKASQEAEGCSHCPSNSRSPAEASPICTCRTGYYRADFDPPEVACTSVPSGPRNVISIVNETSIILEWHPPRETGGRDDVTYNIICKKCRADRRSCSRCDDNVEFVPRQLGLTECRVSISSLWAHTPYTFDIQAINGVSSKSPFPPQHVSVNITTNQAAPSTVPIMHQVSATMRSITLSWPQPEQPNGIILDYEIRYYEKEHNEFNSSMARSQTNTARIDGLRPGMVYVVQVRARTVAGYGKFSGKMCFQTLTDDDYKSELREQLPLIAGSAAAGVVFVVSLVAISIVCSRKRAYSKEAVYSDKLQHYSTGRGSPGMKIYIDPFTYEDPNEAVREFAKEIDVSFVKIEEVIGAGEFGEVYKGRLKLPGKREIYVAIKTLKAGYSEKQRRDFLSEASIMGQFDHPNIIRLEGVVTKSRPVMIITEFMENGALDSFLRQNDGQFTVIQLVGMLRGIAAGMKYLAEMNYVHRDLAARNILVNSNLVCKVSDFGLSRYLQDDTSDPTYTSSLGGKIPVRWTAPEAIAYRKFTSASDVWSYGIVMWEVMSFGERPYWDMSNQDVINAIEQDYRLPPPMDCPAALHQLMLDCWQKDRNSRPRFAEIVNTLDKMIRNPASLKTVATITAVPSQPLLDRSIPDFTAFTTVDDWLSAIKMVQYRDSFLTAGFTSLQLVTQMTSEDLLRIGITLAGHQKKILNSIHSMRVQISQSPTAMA
Sequence of Fes (P07332 whole entry, looked up): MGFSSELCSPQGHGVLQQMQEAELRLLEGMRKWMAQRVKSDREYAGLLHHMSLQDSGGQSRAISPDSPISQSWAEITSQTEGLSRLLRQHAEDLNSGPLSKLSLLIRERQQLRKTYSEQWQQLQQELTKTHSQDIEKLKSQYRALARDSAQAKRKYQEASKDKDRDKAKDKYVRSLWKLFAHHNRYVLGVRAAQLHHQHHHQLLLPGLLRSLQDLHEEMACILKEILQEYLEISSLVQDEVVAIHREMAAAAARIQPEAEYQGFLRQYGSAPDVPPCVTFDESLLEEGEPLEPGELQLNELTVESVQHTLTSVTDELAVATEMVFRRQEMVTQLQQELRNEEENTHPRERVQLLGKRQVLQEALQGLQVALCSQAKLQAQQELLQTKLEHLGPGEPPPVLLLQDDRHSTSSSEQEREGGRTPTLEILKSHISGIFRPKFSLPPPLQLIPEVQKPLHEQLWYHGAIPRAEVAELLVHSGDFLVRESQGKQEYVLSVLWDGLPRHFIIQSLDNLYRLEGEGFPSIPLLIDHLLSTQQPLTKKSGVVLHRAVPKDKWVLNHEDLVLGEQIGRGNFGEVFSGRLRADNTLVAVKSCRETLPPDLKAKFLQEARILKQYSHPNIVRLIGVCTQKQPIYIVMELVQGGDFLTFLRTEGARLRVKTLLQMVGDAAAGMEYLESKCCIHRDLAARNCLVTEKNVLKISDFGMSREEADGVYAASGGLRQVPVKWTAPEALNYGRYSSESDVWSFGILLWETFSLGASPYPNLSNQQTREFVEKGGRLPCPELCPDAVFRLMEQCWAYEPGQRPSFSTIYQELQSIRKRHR
Sequence of MERTK (Q12866 whole entry, looked up): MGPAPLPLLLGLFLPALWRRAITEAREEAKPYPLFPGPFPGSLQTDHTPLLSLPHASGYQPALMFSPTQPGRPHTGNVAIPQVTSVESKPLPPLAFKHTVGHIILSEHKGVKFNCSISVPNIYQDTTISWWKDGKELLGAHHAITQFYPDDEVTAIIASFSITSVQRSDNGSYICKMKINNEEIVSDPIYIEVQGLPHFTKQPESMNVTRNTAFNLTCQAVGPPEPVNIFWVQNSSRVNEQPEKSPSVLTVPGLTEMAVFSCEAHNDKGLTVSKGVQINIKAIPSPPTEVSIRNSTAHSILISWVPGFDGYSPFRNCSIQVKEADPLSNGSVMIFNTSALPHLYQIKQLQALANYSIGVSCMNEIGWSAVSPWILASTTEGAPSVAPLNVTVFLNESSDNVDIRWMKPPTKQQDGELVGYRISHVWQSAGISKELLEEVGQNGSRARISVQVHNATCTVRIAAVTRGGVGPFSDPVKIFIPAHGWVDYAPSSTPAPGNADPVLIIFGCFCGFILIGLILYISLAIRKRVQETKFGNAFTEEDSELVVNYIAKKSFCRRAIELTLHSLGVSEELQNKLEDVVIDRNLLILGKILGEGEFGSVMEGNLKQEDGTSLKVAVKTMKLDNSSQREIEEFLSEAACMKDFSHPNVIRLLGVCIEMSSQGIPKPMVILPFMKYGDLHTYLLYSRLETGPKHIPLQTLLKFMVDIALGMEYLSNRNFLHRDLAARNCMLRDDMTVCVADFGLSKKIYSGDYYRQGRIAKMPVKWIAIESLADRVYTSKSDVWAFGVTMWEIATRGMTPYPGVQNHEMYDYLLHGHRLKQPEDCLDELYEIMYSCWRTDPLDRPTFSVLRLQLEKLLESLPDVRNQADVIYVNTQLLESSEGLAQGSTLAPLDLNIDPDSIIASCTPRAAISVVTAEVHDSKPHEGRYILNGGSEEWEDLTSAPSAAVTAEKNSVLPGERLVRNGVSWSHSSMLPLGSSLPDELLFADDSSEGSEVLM
Sequence of FGFR3 (P22607 whole entry, looked up): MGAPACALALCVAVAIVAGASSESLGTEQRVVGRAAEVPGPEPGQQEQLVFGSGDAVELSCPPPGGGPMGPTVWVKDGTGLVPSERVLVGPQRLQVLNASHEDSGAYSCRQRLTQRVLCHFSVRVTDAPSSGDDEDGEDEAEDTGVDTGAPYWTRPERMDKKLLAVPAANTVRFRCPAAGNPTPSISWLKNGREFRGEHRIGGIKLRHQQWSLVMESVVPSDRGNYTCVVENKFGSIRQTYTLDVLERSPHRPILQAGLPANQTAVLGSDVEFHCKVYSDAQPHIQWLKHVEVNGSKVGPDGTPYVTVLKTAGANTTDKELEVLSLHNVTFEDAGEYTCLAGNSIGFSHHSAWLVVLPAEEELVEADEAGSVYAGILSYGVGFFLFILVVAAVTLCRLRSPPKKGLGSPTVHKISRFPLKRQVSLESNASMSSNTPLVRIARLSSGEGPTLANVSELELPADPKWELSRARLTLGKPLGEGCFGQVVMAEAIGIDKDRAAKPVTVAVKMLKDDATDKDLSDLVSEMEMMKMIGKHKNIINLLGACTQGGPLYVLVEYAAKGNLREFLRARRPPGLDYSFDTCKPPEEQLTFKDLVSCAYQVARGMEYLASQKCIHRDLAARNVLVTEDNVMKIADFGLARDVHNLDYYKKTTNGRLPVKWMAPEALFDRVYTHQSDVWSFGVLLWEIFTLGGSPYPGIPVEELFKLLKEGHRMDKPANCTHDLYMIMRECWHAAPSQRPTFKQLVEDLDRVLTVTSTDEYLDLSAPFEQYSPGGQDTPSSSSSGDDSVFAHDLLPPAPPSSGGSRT
Sequence of Fyn (P06241 whole entry, looked up): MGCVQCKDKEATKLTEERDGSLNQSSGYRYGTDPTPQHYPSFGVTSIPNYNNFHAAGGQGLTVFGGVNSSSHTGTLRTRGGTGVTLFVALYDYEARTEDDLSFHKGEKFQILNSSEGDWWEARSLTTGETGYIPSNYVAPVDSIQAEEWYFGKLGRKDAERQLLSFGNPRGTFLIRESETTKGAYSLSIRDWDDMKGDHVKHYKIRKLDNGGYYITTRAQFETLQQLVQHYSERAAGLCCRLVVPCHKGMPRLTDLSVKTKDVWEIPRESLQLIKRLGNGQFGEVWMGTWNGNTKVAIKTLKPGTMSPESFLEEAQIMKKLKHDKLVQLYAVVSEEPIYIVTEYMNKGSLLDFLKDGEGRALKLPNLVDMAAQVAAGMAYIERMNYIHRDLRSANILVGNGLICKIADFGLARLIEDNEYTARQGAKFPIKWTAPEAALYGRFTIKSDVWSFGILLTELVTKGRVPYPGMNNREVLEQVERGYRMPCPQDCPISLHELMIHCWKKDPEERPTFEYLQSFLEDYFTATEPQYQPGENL

Sequence | phosphorylation enrichment (c-Abl (mouse)) | phosphorylation enrichment (Fes) | phosphorylation enrichment (Fer (mouse)) | phosphorylation enrichment (EPHB1) | phosphorylation enrichment (MERTK) | phosphorylation enrichment (Hck) | phosphorylation enrichment (AncSZ) | phosphorylation enrichment (Fyn) | phosphorylation enrichment (FGFR1) | phosphorylation enrichment (EPHB2) | phosphorylation enrichment (FGFR3) | phosphorylation enrichment (c-Src) | phosphorylation enrichment (Jak2) | SH2 binding enrichment (SHP2-C SH2) | SH2 binding enrichment (Grb2 SH2) | SH2 binding enrichment (c-Src SH2)
DLDATYRPMYS [JUP_Y701_M697L] | 0.486 | 0.86 | 0.433 | 0.399 | 0.386 | 0.6 | 0.699 | 0.46 | 0.383 | 0.444 | 0.512 | 0.569 | 0.588 | 0.832 | 0.798 | 0.502
DRLASYQDKVR [KRT12_Y139_L140Q] | 0.516 | 0.68 | 0.299 | 0.411 | 0.437 | 0.417 | 0.532 | 0.361 | 0.394 | 0.461 | 0.539 | 0.41 | 0.577 | 0.685 | 0.786 | 0.546
ISSLDYISKTK [VAV3_Y294] | 0.478 | 0.696 | 0.386 | 0.626 | 0.537 | 0.447 | 0.703 | 0.559 | 0.505 | 0.463 | 0.513 | 0.487 | 0.495 | 0.73 | 0.762 | 0.419
CERLPYDANKW [FLT1_Y815_S818N] | 0.804 | 1.16 | 0.615 | 0.626 | 0.415 | 0.43 | 1.11 | 0.506 | 0.422 | 0.602 | 0.817 | 0.477 | 1.01 | 0.754 | 0.619 | 0.492
LLREWYVQDPF [SIX3_Y225_L226V_YF] | 0.528 | 0.977 | 0.576 | 0.673 | 0.443 | 0.522 | 0.961 | 0.438 | 0.766 | 0.621 | 0.998 | 0.466 | 0.892 | 1 | 1.03 | 1.11
IGKDLYANNVL [ACTA2_Y296_R292G] | 0.77 | 1.15 | 0.619 | 0.679 | 0.556 | 0.775 | 1.2 | 0.526 | 0.45 | 0.634 | 0.64 | 0.55 | 1.03 | 0.574 | 0.844 | 0.535
VNYGAYINDFK [GLB1_Y488] | 0.515 | 0.86 | 0.402 | 0.709 | 0.373 | 0.454 | 0.773 | 0.912 | 0.469 | 1.22 | 0.593 | 0.761 | 0.665 | 0.88 | 10.3 | 4.76
IEDPFYGNDSD [ACP1_Y133_YF] | 1.1 | 1.55 | 0.755 | 0.782 | 0.487 | 0.628 | 1.51 | 0.556 | 0.643 | 0.65 | 0.966 | 0.75 | 2.17 | 0.855 | 0.942 | 0.529
FAREGYSALPQ [SARS2_Y52_YF] | 0.564 | 0.666 | 0.441 | 0.426 | 0.502 | 0.524 | 0.603 | 0.421 | 0.471 | 0.466 | 0.446 | 0.43 | 0.652 | 0.85 | 0.914 | 0.583
IFQASYFRRGD [LTK_Y676_R673Q_YF] | 0.789 | 1.23 | 0.416 | 0.516 | 0.628 | 0.517 | 1.05 | 0.499 | 0.544 | 0.518 | 0.619 | 0.543 | 1.18 | 0.607 | 0.835 | 0.48
FSKRIYKGMVA [PCDH15_Y931] | 0.332 | 0.534 | 0.369 | 0.231 | 0.362 | 0.352 | 0.426 | 0.392 | 0.262 | 0.5 | 0.367 | 0.338 | 0.402 | 0.555 | 0.773 | 0.462
PELINYHQHNF [BTK_Y361_S366F] | 0.919 | 1.25 | 0.736 | 0.631 | 0.696 | 0.836 | 1.04 | 0.789 | 0.851 | 0.826 | 0.598 | 0.942 | 1.02 | 0.716 | 1.03 | 0.434
IDDNQYAYLKA [HNF4A_Y286_E285Q] | 1.02 | 0.91 | 1 | 0.558 | 0.876 | 2.12 | 0.993 | 0.668 | 2.93 | 0.667 | 1.69 | 0.48 | 0.753 | 0.898 | 0.87 | 1.47
PADCRYFAFPQ [GAMT_Y222_YF] | 0.752 | 0.99 | 0.636 | 1.29 | 5.65 | 0.733 | 1.35 | 0.817 | 2.35 | 0.959 | 1.78 | 1.43 | 2.66 | 1.18 | 0.818 | 1.26
LHAAAYRNALA [UQCRC2_Y182] | 0.303 | 0.871 | 0.33 | 0.362 | 0.407 | 0.484 | 0.686 | 0.55 | 0.415 | 0.491 | 0.402 | 0.398 | 0.594 | 0.682 | 0.691 | 0.559
KTVQDYLKKFY [MMP8_Y36_E38K] | 1.42 | 0.687 | 0.325 | 0.396 | 0.454 | 0.438 | 0.571 | 0.366 | 0.428 | 0.398 | 0.382 | 0.421 | 0.517 | 0.606 | 1 | 0.438
MICSAYALGGL [CPS1_Y590_R587C] | 0.811 | 1.05 | 0.551 | 0.623 | 0.571 | 0.72 | 0.961 | 0.659 | 0.635 | 0.601 | 0.844 | 0.779 | 0.983 | 0.506 | 0.764 | 0.552
ATPKGYERDAS [OTC_Y223_P225R] | 0.421 | 0.68 | 0.518 | 0.358 | 0.447 | 0.399 | 0.591 | 0.442 | 0.462 | 0.522 | 0.471 | 0.369 | 0.551 | 0.562 | 0.767 | 0.444
SETSRYLSELF [KCNJ3_Y67_D70E] | 0.535 | 0.882 | 0.376 | 0.467 | 0.382 | 0.464 | 1.07 | 0.397 | 0.509 | 0.498 | 0.537 | 0.346 | 0.783 | 0.774 | 0.883 | 0.588
AVRVFYRKCPR [EPHB2_Y194] | 0.78 | 0.655 | 0.518 | 0.345 | 0.517 | 0.512 | 0.948 | 0.464 | 0.428 | 0.463 | 0.645 | 0.557 | 0.7 | 0.529 | 0.611 | 0.417
KLKEKYEKDIA [HMGB1_Y155] | 0.647 | 0.82 | 0.55 | 0.418 | 0.663 | 0.473 | 0.704 | 0.537 | 0.536 | 0.495 | 0.452 | 0.507 | 0.784 | 0.769 | 1.23 | 0.656
LISVSYDDWDF [GRIN2A_Y281_YF] | 1.64 | 2.44 | 19.4 | 1.46 | 1.03 | 0.893 | 3.36 | 0.953 | 1.08 | 1 | 1.09 | 1.07 | 2.06 | 0.797 | 1.12 | 1.36
SNYRAYATEPQ [TNNI3_Y29_H34Q] | 0.464 | 0.72 | 0.444 | 0.461 | 0.428 | 0.497 | 0.699 | 0.419 | 0.389 | 0.467 | 0.475 | 0.44 | 0.597 | 0.672 | 0.75 | 0.384
IYKAAYFGVYD [SLC25A4_Y191_R188K] | 0.865 | 1.05 | 0.893 | 1.4 | 1.4 | 5.77 | 1.17 | 6.16 | 0.628 | 1.32 | 0.745 | 5.18 | 0.993 | 1.11 | 0.923 | 2.31
DMLFQYLKQIE [RPAP3_Y569_YF] | 0.577 | 1.22 | 0.462 | 0.684 | 0.523 | 0.571 | 1.48 | 0.421 | 0.531 | 0.588 | 0.59 | 0.468 | 0.976 | 0.851 | 0.93 | 0.652
ANFTEYVATSW [CDKL5_Y171_R175S_YF] | 0.892 | 1.03 | 0.505 | 0.841 | 0.512 | 0.511 | 0.983 | 0.555 | 1.03 | 0.988 | 0.983 | 0.578 | 0.974 | 0.809 | 0.757 | 0.545
PFTRNYYVQAV [CYBA_Y87_R90Q] | 1.12 | 1.1 | 0.555 | 0.787 | 1.25 | 0.446 | 1.03 | 0.46 | 1.99 | 0.706 | 1.9 | 0.615 | 1.17 | 3.28 | 0.981 | 1.19
AVRFIYTIDGS [DCX_Y105_G100A_YF] | 0.706 | 1.28 | 0.529 | 0.574 | 0.424 | 0.67 | 1.32 | 1.56 | 0.453 | 0.552 | 0.697 | 1.55 | 1.27 | 0.988 | 0.928 | 0.723
TTEHIYGDKFF [UBA7_Y524_N527K] | 0.728 | 0.762 | 0.502 | 0.468 | 0.459 | 2.15 | 0.722 | 4.92 | 0.597 | 0.477 | 0.563 | 4.65 | 0.648 | 0.655 | 0.704 | 0.471
